Results: US20240209061A1, “FUSION PROTEINS AND USES THEREOF” (Pfizer Inc., priority 2020, published 2024)

Key:
[1] = Thermal stability by Differential Scanning calorimetry (DSC); type: physicochemical
Procedure: There is a correlation between the thermal stability of a protein with the overall stability of the protein. Enhanced thermal stability often provides improved manufacturability and longer shelf life/stability. Thermal stability of variant CD80-Fc fusion proteins was assessed by Differential Scanning calorimetry (DSC). Variant CD80-Fc fusion proteins were analyzed using a MicroCal VP-DSC instrument. […] Tables 8-10 show the first thermal transition temperature (Tm1) of CD80-Fc fusion proteins and the enhanced thermal stability of variant CD80-Fc fusion proteins compared to CD80-WT-Fc fusion proteins.

[2] = system: Jurkat-IL-2-Luc reporter cells; experiment: Jurkat-IL-2-Luc and HCT116-CD64 reporter co-stimulation assay; type: cell-based, human; details: Table 17; 20 ng/ml CDH3×CD3 bispecific; n=2
Excerpt: A T cell co-stimulation assay was designed based on T Cell Activation Bioassay (IL-2) Kit from Promega (Product #J1631). The assay consisted of a genetically engineered Jurkat T cell line that expresses luciferase reporter driven by an IL-2 promoter. Co-engagement of T cell antigen receptor (TCR/CD3) and CD28 co-stimulatory receptor induces activation of T cells and downstream intracellular signaling pathways that in turn regulate the expression of luciferase reporter. As described above, HCT116 human colon cancer cell line was used for TCR engagement using the CDH3×CD3 bispecific and genetically engineered by lentiviral transduction to express human FCγRI.
A 96 well culture plate was seeded with HCT116 parental or HCT116-CD64 cells at 40,000 cells per well in 100 μL RPMI with 10% HI FBS and grown overnight at 37° C. in CO2 incubator. To each well, Jurkat reporter cells (100,000 per well) and 10 μL of the CDH3×CD3 bispecific (8 ng/ml final concentration) were added. 10 μL of serial dilutions of variant CD80-Fc fusion proteins with concentrations ranging from 0-1000 ng/ml (final concentrations per well) was added with appropriate controls. Assay plates were incubated for 6 hours at 37° C. in CO2 incubator for before harvesting culture supernatants and transferring to new plates. Following equilibration, 80 μL of BioGlo luminescence reagent (BioGlo Luciferase assay kit, Promega, G7940) was added into each well. Plates were incubated for 5 minutes before reading luminescence on the EnSight™ plate reader (PerkinElmer).
Jurkat is an immortalized human T cell line, and the Jurkat IL-2-reporter assay assesses the CD28-mediated signaling resulting in activation of the IL-2 promoter. The activity of CD80-Fc fusion proteins was measured using the co-culture HCT116-CD64-Jurkat IL-2 reporter assay, as described in Example 2, but using 20 ng/ml CDH3×CD3 bispecific.

[3] = Pharmacokinetics in huFcRn transgenic mice; details: 0.1 mg/kg IV
Procedure: PK of CD80-Fc fusion proteins was also assessed in transgenic mice expressing the human neonatal Fc receptor (huFcRn) a-chain transgene under the control of its natural human promoter. Female mice were dosed intravenously with CD80-Fc fusion proteins at 0.1 mg/kg, and blood was collected at the timepoints indicated on the graph. Levels of CD80-Fc in mouse plasma were measured as described above.

[4] = system: peripheral blood mononuclear cells (PBMC); experiment: RESTORE cytokine release assay in absence of TCR stimulation; type: cell-based, human; design: IFNγ: unit not given beside the values
Procedure: The ability of variant CD80-Fc fusion proteins to promote cytokine release in the absence of TCR stimulation was assessed in the RESTORE (RESetting T cells to Original Reactivity) assay (Römer et al, Blood, 2011). Freshly isolated peripheral blood mononuclear cells (PBMC) from whole blood of several healthy donors were cultured for 48 hours at […] within RPMI1640 media supplemented with 10% autologous plasma, 10 mM HEPES, 1× GlutaMAX, 1× PenStrep, beta2-mercaptoethanol, NEAA and sodium pyruvate. Following the 48-hour incubation, PBMC were pelleted and resuspended at a final concentration of 10^6/ml with indicated soluble drug. Treatment was allowed for 48 hours then supernatant was harvested and assessed in IL-2 and IFNγ ELISA according to manufacturer's protocol (BioLegend).
Positive controls included CD28 superagonist anti-CD28 clone TGN1412 as IgG1 and IgG4 isotypes and anti-CD3. […] Values shown are the average of 3 technical replicates. D=Donor.

- EC50 [2]: 0.58 ± 0.074 nM
Substance: CD80-WT-Fc: wild-type human CD80 extracellular domain fused to human IgG1 Fc (C220S) [reference compound]
- DSC Tm1 ([1]; Glu pH 4.5): 62.78 ± 0.03 °C
- DSC Tm1 ([1]; His pH 5.8): 63.40 ± 0.35 °C
- DSC Tm1 ([1]; PBS): 59.52 ± 0.07 °C
- DSC Tm1 ([1]; Tris pH 7.5): 64.77 ± 0.14 °C
- AUC [3]: 97000 ng·h/mL
- CL [3]: 20.2 mL/day/kg
- T1/2 [3]: 80 h
- Vdss [3]: 0.087 L/kg
- Cmax ([3]; average of 3 animals): 2000 ng/mL
- IFNγ ([4]; Table 20, D222, 1 μg/ml): 4.3
- IL-2 ([4]; Table 20, D222, 1 μg/ml): 7.7
- IFNγ ([4]; Table 20, D222, 10 μg/ml): 3.3
- IL-2 ([4]; Table 20, D222, 10 μg/ml): 9.3
- IFNγ ([4]; Table 20, D281, 1 μg/ml): 3.0
- IL-2 ([4]; Table 20, D281, 1 μg/ml): 3.0
- IFNγ ([4]; Table 20, D281, 10 μg/ml): 3.3
- IL-2 ([4]; Table 20, D281, 10 μg/ml): 2.0
- IFNγ ([4]; Table 20, D462, 1 μg/ml): 6.0
- IL-2 ([4]; Table 20, D462, 1 μg/ml): 1.7
- IFNγ ([4]; Table 20, D462, 10 μg/ml): 7.3
- IL-2 ([4]; Table 20, D462, 10 μg/ml): 2.0
- IFNγ ([4]; Table 20, D547, 1 μg/ml): 4.0
- IL-2 ([4]; Table 20, D547, 1 μg/ml): 9.0
- IFNγ ([4]; Table 20, D547, 10 μg/ml): 3.3
- IL-2 ([4]; Table 20, D547, 10 μg/ml): 5.3
- IL-2 ([4]; Table 21, D132, 1.9 μg/ml): 0.0
- IL-2 ([4]; Table 21, D132, 5.6 μg/ml): 0.0
- IL-2 ([4]; Table 21, D132, 16.7 μg/ml): 0.3
- IL-2 ([4]; Table 21, D149, 1.9 μg/ml): 0.3
- IL-2 ([4]; Table 21, D149, 5.6 μg/ml): 4.3
- IL-2 ([4]; Table 21, D149, 16.7 μg/ml): 0.0
- IL-2 ([4]; Table 21, D149, 50 μg/ml): 0.0
- IL-2 ([4]; Table 21, D379, 1.9 μg/ml): 3.3
- IL-2 ([4]; Table 21, D379, 50 μg/ml): 0.3
- IL-2 ([4]; Table 21, D399, 1.9 μg/ml): 0.0
- IL-2 ([4]; Table 21, D399, 5.6 μg/ml): 0.0
- IL-2 ([4]; Table 21, D399, 16.7 μg/ml): 0.0
- IL-2 ([4]; Table 21, D399, 50 μg/ml): 3.0
- IL-2 ([4]; Table 21, D417, 1.9 μg/ml): 5.7
- IL-2 ([4]; Table 21, D417, 5.6 μg/ml): 10.7
- IL-2 ([4]; Table 21, D417, 16.7 μg/ml): 0.3
- IL-2 ([4]; Table 21, D417, 50 μg/ml): 0.3
- IL-2 ([4]; Table 21, D518, 1.9 μg/ml): 4.7
- IL-2 ([4]; Table 21, D518, 5.6 μg/ml): 4.7
- IL-2 ([4]; Table 21, D518, 16.7 μg/ml): 1.3
- IL-2 ([4]; Table 21, D518, 50 μg/ml): 2.7
- IFNγ ([4]; Table 22, D132, 1.9 μg/ml): 14.3
- IFNγ ([4]; Table 22, D132, 5.6 μg/ml): 0.0
- IFNγ ([4]; Table 22, D132, 16.7 μg/ml): 0.0
- IFNγ ([4]; Table 22, D132, 50 μg/ml): 12.3
- IFNγ ([4]; Table 22, D149, 5.6 μg/ml): 0.0
- IFNγ ([4]; Table 22, D149, 16.7 μg/ml): 0.0
- IFNγ ([4]; Table 22, D149, 50 μg/ml): 5.7
- IFNγ ([4]; Table 22, D379, 1.9 μg/ml): 0.3
- IFNγ ([4]; Table 22, D379, 5.6 μg/ml): 0.0
- IFNγ ([4]; Table 22, D379, 16.7 μg/ml): 0.0
- IFNγ ([4]; Table 22, D379, 50 μg/ml): 0.0
- IFNγ ([4]; Table 22, D399, 1.9 μg/ml): 0.0
- IFNγ ([4]; Table 22, D399, 5.6 μg/ml): 0.0
- IFNγ ([4]; Table 22, D399, 16.7 μg/ml): 0.0
- IFNγ ([4]; Table 22, D399, 50 μg/ml): 18.3
- IFNγ ([4]; Table 22, D417, 1.9 μg/ml): 0.0
- IFNγ ([4]; Table 22, D417, 5.6 μg/ml): 146.7
- IFNγ ([4]; Table 22, D417, 16.7 μg/ml): 13.3
- IFNγ ([4]; Table 22, D417, 50 μg/ml): 0.0
- IFNγ ([4]; Table 22, D518, 1.9 μg/ml): 0.0
- IFNγ ([4]; Table 22, D518, 5.6 μg/ml): 0.0
- IFNγ ([4]; Table 22, D518, 16.7 μg/ml): 0.0
- IFNγ ([4]; Table 22, D518, 50 μg/ml): 0.0
